The supplement of paper PMC10126150
± gives the standard deviation of the averaged measurements.

system: ATP; assay: switch fluorescence ratio, 500 uM ATP over buffer (Cy3 cluster intensity, sum of 5 cycles each) (fold (ratio)); higher = stronger signal-on switching upon ATP binding; sequences stand for … in TCGTCGGCAGCGTCAGATGTGTATAAGAGACAGTTTTTTTTTTTTTTTTTTTTTTTTT…TC; conditions: aptamer strand: ATP DNA aptamer (quencher-CACCTGGGGGAGTATTGCGGAGGAAGG + anchor), 100 nM annealed; ATP concentration: 500 uM
How it was run: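 Switching-strand clusters labelled with Cy3 on a modified Illumina MiSeq flow-cell were annealed to 100 nM quencher-labelled ATP aptamer, imaged in selection buffer, and re-imaged after 15 min with 500 uM ATP at 22 °C. This was done over five cycles with NaOH stripping and re-annealing in between. The fluorescence ratio is summed target-cycle over summed buffer-cycle Cy3 intensity per cluster, averaged per switch-domain sequence, excluding clusters outside 100-1000 RFU.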
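Note: ATP exposure 15 min at 22 °C before imaging.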

| Sequence | switch fluorescence ratio |
| --- | --- |
| TTTTAGGTCG | 0.987 ± 0.013 |
| TTTTAGTCGG | 0.9883 ± 0.0092 |
| TTTTAGTGGC | 1.02 ± 0.029 |
| TTTTAGTGGT | 0.992 ± 0.014 |
| TTTTAGTGTC | 0.998 ± 0.072 |
| TTTTAGTTTA | 1.01 ± 0.031 |
| TTTTAGTTTC | 1.015 ± 0.0022 |
| TTTTATAAGA | 1.05 ± 0.075 |
| TTTTATAAGT | 1.03 ± 0.021 |
| TTTTATAGGA | 0.976 ± 0.006 |
| TTTTATATAA | 1.02 ± 0.039 |
| TTTTATGCTA | 1 ± 0.054 |
| TTTTATGGGG | 0.968 ± 0.031 |
| TTTTATGTTT | 1 ± 0.019 |
| TTTTATTGCT | 0.991 ± 0.036 |
| TTTTATTGGA | 1 ± 0.03 |
| TTTTATTGGG | 0.975 ± 0.031 |
| TTTTATTTCA | 0.991 ± 0.021 |
| TTTTCAAAAT | 1.08 ± 0.13 |
| TTTTCAATGT | 1.04 ± 0.048 |
| TTTTCACCAA | 1.03 ± 0.025 |
| TTTTCAGGGG | 1.03 ± 0.049 |
| TTTTCATAAG | 1 ± 0.011 |
| TTTTCATCTG | 1.03 ± 0.098 |
| TTTTCCAAGA | 1.09 ± 0.1 |

| Sequence | switch fluorescence ratio |
| --- | --- |
| TTTTCCCGCA | 2.02 ± 0.26 |
| TTTTCCGCGG | 1.062 ± 0.0077 |
| TTTTCCTGAC | 1.64 ± 0.25 |
| TTTTCCTGGG | 1.03 ± 0.063 |
| TTTTCGCATT | 1.23 ± 0.051 |
| TTTTCGGAGT | 1.01 ± 0.037 |
| TTTTCGGGGT | 0.986 ± 0.025 |
| TTTTCGGGTG | 1.05 ± 0.024 |
| TTTTCGTATT | 0.988 ± 0.012 |
| TTTTCTCTTT | 1.01 ± 0.035 |
| TTTTCTTCTC | 1.03 ± 0.028 |
| TTTTGAAACG | 0.995 ± 0.025 |
| TTTTGAACGT | 1.02 ± 0.043 |
| TTTTGAATTT | 0.996 ± 0.032 |
| TTTTGACTTG | 0.948 ± 0.0044 |
| TTTTGACTTT | 0.998 ± 0.023 |
| TTTTGAGAAA | 0.99 ± 0.028 |
| TTTTGAGACG | 1.09 ± 0.011 |
| TTTTGAGGCA | 1.02 ± 0.027 |
| TTTTGATAAC | 0.97 ± 0.036 |
| TTTTGATGCG | 0.982 ± 0.031 |
| TTTTGATGTT | 0.988 ± 0.031 |
| TTTTGATTGC | 1.03 ± 0.037 |
| TTTTGCAGG | 0.991 ± 0.05 |
| TTTTGCCCCC | 1.12 ± 0.14 |

| Sequence | switch fluorescence ratio |
| --- | --- |
| TTTTGCTGTG | 1.01 ± 0.025 |
| TTTTGCTTTC | 1.14 ± 0.1 |
| TTTTGGAAAC | 1.11 ± 0.17 |
| TTTTGGACCC | 1.01 ± 0.035 |
| TTTTGGAGAG | 1.01 ± 0.016 |
| TTTTGGATAT | 1.28 ± 0.42 |
| TTTTGGCACG | 0.988 ± 0.0014 |
| TTTTGGCGAC | 0.976 ± 0.027 |
| TTTTGGCGTC | 0.994 ± 0.023 |
| TTTTGGCTTA | 0.9945 ± 0.007 |
| TTTTGGGAAC | 1.02 ± 0.037 |
| TTTTGGGACT | 1.03 ± 0.019 |
| TTTTGGGAGG | 1 ± 0.054 |
| TTTTGGGGTT | 0.997 ± 0.043 |
| TTTTGGGTCA | 1.02 ± 0.018 |
| TTTTGGTACC | 1.02 ± 0.015 |
| TTTTGGTCCT | 1.07 ± 0.1 |
| TTTTGGTGGA | 0.988 ± 0.014 |
| TTTTGGTTCC | 1.01 ± 0.016 |
| TTTTGGTTCG | 0.987 ± 0.032 |
| TTTTGGTTG | 0.947 ± 0.045 |
| TTTTGTAACG | 1 ± 0.034 |
| TTTTGTAAGA | 1.03 ± 0.013 |
| TTTTGTATTT | 0.988 ± 0.035 |
| TTTTGTCATT | 1 ± 0.04 |

| Sequence | switch fluorescence ratio |
| --- | --- |
| TTTTGTCCAT | 0.992 ± 0.015 |
| TTTTGTCGTG | 0.95 ± 0.033 |
| TTTTGTCTGC | 0.98876 ± 0.00074 |
| TTTTGTGAAG | 0.963 ± 0.035 |
| TTTTGTGAGA | 1.026 ± 0.0075 |
| TTTTGTGAGT | 1.01 ± 0.04 |
| TTTTGTGCTG | 0.984 ± 0.052 |
| TTTTGTGCTT | 1.04 ± 0.074 |
| TTTTGTGGCG | 1.04 ± 0.033 |
| TTTTGTGGCT | 0.98 ± 0.02 |
| TTTTGTGGTC | 1.02 ± 0.017 |
| TTTTGTGTGC | 1.02 ± 0.022 |
| TTTTGTTCTT | 0.984 ± 0.012 |
| TTTTGTTTGA | 0.995 ± 0.01 |
| TTTTTAAGAC | 1.08 ± 0.086 |
| TTTTTAATCG | 1.01 ± 0.032 |
| TTTTTAATCT | 0.9902 ± 0.0083 |
| TTTTTAATGA | 1.02 ± 0.052 |
| TTTTTACAAG | 1.21 ± 0.3 |
| TTTTTACTAT | 1.002 ± 0.0057 |
| TTTTTAGAAA | 0.971 ± 0.011 |
| TTTTTAGCCA | 1.05 ± 0.024 |
| TTTTTAGCCG | 1.04 ± 0.075 |
| TTTTTAGCGA | 1.09 ± 0.058 |
| TTTTTAGCTT | 1.04 ± 0.028 |

| Sequence | switch fluorescence ratio |
| --- | --- |
| TTTTTAGGGC | 1.02 ± 0.059 |
| TTTTTAGTGC | 1 ± 0.044 |
| TTTTTAGTTG | 1.12 ± 0.41 |
| TTTTTATAGC | 1.01 ± 0.044 |
| TTTTTATAT | 0.983 ± 0.031 |
| TTTTTATATT | 1.21 ± 0.44 |
| TTTTTATCA | 0.9798 ± 0.0082 |
| TTTTTATCAG | 0.977 ± 0.038 |
| TTTTTATGGA | 1.03 ± 0.027 |
| TTTTTATGGG | 1.03 ± 0.077 |
| TTTTTATTAA | 0.989 ± 0.033 |
| TTTTTATTG | 1.02 ± 0.018 |
| TTTTTCAGCC | 1.01 ± 0.046 |
| TTTTTCCCCT | 0.992 ± 0.023 |
| TTTTTCCGGC | 1.063 ± 0.0063 |
| TTTTTCGACG | 1.1 ± 0.21 |
| TTTTTCGTAT | 1.04 ± 0.044 |
| TTTTTCTAAC | 0.996 ± 0.016 |
| TTTTTCTATA | 0.994 ± 0.066 |
| TTTTTCTATG | 0.983 ± 0.05 |
| TTTTTCTCTT | 0.996 ± 0.021 |
| TTTTTCTGGA | 0.993 ± 0.021 |
| TTTTTCTTAT | 1 ± 0.041 |
| TTTTTGAACT | 1.01 ± 0.037 |
| TTTTTGAAGA | 0.986 ± 0.046 |

| Sequence | switch fluorescence ratio |
| --- | --- |
| TTTTTGAGGG | 1.01 ± 0.04 |
| TTTTTGAGGT | 1 ± 0.025 |
| TTTTTGAGTT | 0.977 ± 0.032 |
| TTTTTGCGAT | 0.9982 ± 0.0046 |
| TTTTTGCGTC | 1.03 ± 0.059 |
| TTTTTGGAAC | 1.01 ± 0.023 |
| TTTTTGGAGC | 1.01 ± 0.016 |
| TTTTTGGGGC | 1.03 ± 0.072 |
| TTTTTGGTGC | 1.04 ± 0.03 |
| TTTTTGTATG | 1.02 ± 0.034 |
| TTTTTGTCAT | 0.9912 ± 0.0094 |
| TTTTTGTCGG | 0.996 ± 0.026 |
| TTTTTGTGCT | 0.996 ± 0.032 |
| TTTTTGTTAA | 1.01 ± 0.013 |
| TTTTTGTTCC | 1.08 ± 0.1 |
| TTTTTGTTTG | 0.985 ± 0.029 |
| TTTTTTAAAC | 0.996 ± 0.013 |
| TTTTTTAAGT | 0.995 ± 0.024 |
| TTTTTTAATG | 1 ± 0.033 |
| TTTTTTATGA | 1.03 ± 0.027 |
| TTTTTTATTC | 1.15 ± 0.29 |
| TTTTTTATTT | 0.996 ± 0.025 |
| TTTTTTCAGG | 1.03 ± 0.027 |
| TTTTTTCCCG | 1.09 ± 0.11 |
| TTTTTTCCGG | 1.21 ± 0.17 |

| Sequence | switch fluorescence ratio |
| --- | --- |
| TTTTTTCCGT | 1.07 ± 0.16 |
| TTTTTTCCTG | 0.989 ± 0.011 |
| TTTTTTCGTT | 0.988 ± 0.022 |
| TTTTTTCTGG | 1 ± 0.091 |
| TTTTTTCTTC | 1.04 ± 0.011 |
| TTTTTTGCCG | 1.05 ± 0.14 |
| TTTTTTGCGA | 1.06 ± 0.079 |
| TTTTTTGCGC | 1.19 ± 0.29 |
| TTTTTTGCGT | 0.987 ± 0.047 |
| TTTTTTGCTC | 1.02 ± 0.033 |
| TTTTTTGGTA | 1.01 ± 0.036 |
| TTTTTTGGTC | 1.03 ± 0.037 |
| TTTTTTTACG | 1.06 ± 0.041 |
| TTTTTTTAGC | 1.03 ± 0.064 |
| TTTTTTTCAA | 1.01 ± 0.02 |
| TTTTTTTGAA | 0.979 ± 0.02 |
| TTTTTTTGAC | 1.01 ± 0.038 |
| TTTTTTTGGT | 0.996 ± 0.028 |
| TTTTTTTTCT | 1.02 ± 0.067 |
